Results from the supplement of paper PMC10567573.

B1: FCHSD1 (parent)
chain: LEAAEVILEHAHRGEQTTSQVSWE

Variants of: B1
Assay: protein stability index of a GFP-peptide fusion (GPS, HEK-293T) (PSI 1-6); higher = more stable
Settings: c terminus: a fixed tail appended
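Note: lentivirally expressed fusions sorted by FACS into six bins by GFP to DsRed ratio, PSI derived from sequencing read proportions per bin multiplied by bin number.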

| Variant | protein stability index |
| --- | --- |
| R13P | 4.9 |
| R13K | 4.1 |
| R13W | 3.27 |
| R13D | 4.67 |
| R13N | 4.63 |
| R13M | 4.27 |
| R13T | 4.58 |
| R13C | 3.5 |
| R13L | 4.13 |
| R13S | 4.24 |
| E15Q | 3.5 |
| E15L | 2.81 |
| E15V | 2.6 |
| E15R | 3.87 |
| E15K | 3.46 |
| E15N | 4.7 |
| E15W | 2.2 |
| E9I | 1.86 |
| E9D | 4.33 |
| E9Y | 2.33 |
| E9H | 4.18 |
| E9L | 2.52 |
| E9T | 3.62 |
| E9N | 3.8 |
| E9G | 3.87 |

| Variant | protein stability index |
| --- | --- |
| E9F | 2.54 |
| E9Q | 3.45 |
| S22M | 4.54 |
| S22Q | 4.98 |
| S22F | 3.71 |
| S22L | 3.79 |
| S22V | 5.24 |
| S22A | 4.57 |
| S22N | 4.47 |
| S22K | 4.93 |
| S22P | 5.17 |
| T17A | 4.2 |
| T17P | 4.14 |
| T17E | 5.06 |
| T17H | 3.99 |
| T17Q | 4.51 |
| T17L | 2.78 |
| T17W | 3.54 |
| T17Y | 3.32 |
| E2I | 2.5 |
| E2N | 4.42 |
| E2M | 3.79 |
| E2A | 3.94 |
| E2K | 3.93 |
| E2Q | 4.41 |

| Variant | protein stability index |
| --- | --- |
| E2D | 4.31 |
| E2P | 4.32 |
| Q16N | 3.97 |
| Q16E | 4.88 |
| Q16F | 3.53 |
| Q16Y | 3.69 |
| Q16M | 3.57 |
| Q16S | 4.4 |
| Q16V | 4.13 |
| Q16R | 4.14 |
| Q16D | 4.9 |
| Q16G | 4.42 |
| Q16L | 2.92 |
| Q16K | 4.24 |
| Q16A | 4.41 |
| H10V | 3.92 |
| H10S | 4.41 |
| H10T | 4.65 |
| H10N | 3.78 |
| H10I | 2.88 |
| H10K | 4.48 |
| H10E | 5.19 |
| H10Y | 3.15 |
| H10Q | 4.88 |
| H10L | 4.34 |

| Variant | protein stability index |
| --- | --- |
| H10M | 3.15 |
| L8S | 5.37 |
| L8I | 4.46 |
| L8Y | 4.42 |
| L8T | 5.09 |
| L8M | 4.46 |
| L8D | 5.35 |
| L8W | 4.31 |
| L8C | 4.93 |
| L8R | 4.92 |
| L8F | 4 |
| L8H | 4.74 |
| L8P | 5.65 |
| L8Q | 5.5 |
| L8E | 5.09 |
| I7L | 4.99 |
| I7E | 4.64 |
| I7A | 4.71 |
| I7R | 5.16 |
| I7M | 4.84 |
| I7F | 4.27 |
| I7P | 4.89 |
| I7V | 4.75 |
| I7N | 5.08 |
| E5V | 2.83 |

| Variant | protein stability index |
| --- | --- |
| E5K | 3.48 |
| E5C | 2.82 |
| E5M | 2.4 |
| E5F | 2.29 |
| E5A | 2.84 |
| E5I | 2.18 |
| E5R | 4.22 |
| E5W | 1.53 |
| E5Y | 2.01 |
| S19H | 4.14 |
| S19T | 4.21 |
| S19M | 3 |
| S19Y | 2.64 |
| S19P | 4.7 |
| V21A | 5.21 |
| V21K | 4.68 |
| V21P | 5.55 |
| V21L | 4.58 |
| V21E | 5.07 |
| V21M | 4.32 |
| V21S | 5.51 |
| L1D | 4.42 |
| L1E | 4.55 |
| L1V | 4.7 |
| L1Y | 5 |

| Variant | protein stability index |
| --- | --- |
| L1K | 4.67 |
| L1H | 4.88 |
| L1N | 4.61 |
| L1P | 5.11 |
| L1M | 4.58 |
| L1T | 5.34 |
| A11N | 4.18 |
| A11M | 4.46 |
| A11Q | 4.11 |
| A11G | 4.14 |
| A11Y | 3.47 |
| A4H | 4.46 |
| A4I | 2.56 |
| A4E | 5.11 |
| A4M | 2.35 |
| A4L | 2.59 |
| A4Y | 2.48 |
| A4C | 4.59 |
| A4N | 4.52 |
| A4K | 4.24 |
| E24L | 2.95 |
| E24H | 4 |
| E24S | 4.46 |
| E24Q | 3.95 |
| E24C | 3.88 |

| Variant | protein stability index |
| --- | --- |
| E24K | 4.64 |
| G14C | 4.2 |
| G14H | 4.28 |
| G14T | 4.21 |
| G14V | 3.47 |
| G14I | 3.85 |
| G14A | 4.55 |
| G14R | 4.19 |
| G14Y | 3.64 |
| G14L | 3.76 |
| G14D | 4.68 |
| W23I | 4.2 |
| W23F | 4.64 |
| W23A | 5.32 |
| W23D | 5.55 |
| W23K | 4.41 |
| W23Q | 5.54 |
| W23P | 5.29 |
| W23S | 5.24 |
| A3Q | 4.79 |
| A3N | 4.43 |
| A3R | 4.41 |
| A3D | 5.14 |
| A3T | 4.49 |
| A3S | 5.35 |

| Variant | protein stability index |
| --- | --- |
| A3M | 3.65 |
| A3V | 2.89 |
| A3Y | 3.6 |
| A3G | 4.53 |
| A3E | 4.74 |
| A3H | 3.86 |
| T18Q | 3.21 |
| T18H | 4.09 |
| T18C | 4.45 |
| T18N | 3.69 |
| T18M | 3.59 |
| T18P | 4.33 |
| T18I | 3.65 |
| T18E | 4.2 |
| T18Y | 3.21 |
| T18W | 2.7 |
| T18D | 4.74 |
| T18L | 4.11 |
| T18K | 4.54 |
| T18S | 4.41 |
| Q20H | 4.2 |
| Q20S | 4.51 |
| Q20V | 4.02 |
| Q20D | 5.02 |
| Q20P | 4.38 |

| Variant | protein stability index |
| --- | --- |
| Q20F | 3.76 |
| Q20L | 4.17 |
| Q20C | 3.95 |
| Q20K | 5.02 |
| Q20I | 4.42 |
| Q20Y | 4.26 |
| Q20A | 3.72 |
| V6A | 4.9 |
| V6K | 4.16 |
| V6D | 5.52 |
| V6L | 3.95 |
| V6Q | 5.27 |
| V6G | 5.35 |
| V6Y | 4.17 |
| V6S | 4.24 |
| V6N | 5.66 |
| H12S | 4.77 |
| H12E | 4.92 |
| H12N | 4.55 |
| H12Y | 4.09 |
| H12T | 4.11 |
